Reference: patent US20230057263A1 (CYTOMX THERAPEUTICS, published 2023)
Substitutions are numbered along the chain they refer to. Each block holds one binder with its values, some of them ahead of it. No end group written: not given here. *: point of attachment. Biotin = O=C1N[C@H]2[C@H](CS[C@H]2CCCCC(=O)*)N1; linker = not defined here

Tests used:
[1] = molecular target: T1, biotinylated 15-mer peptide corresponding to the CD3ε N-terminus (human, UniProt P07766 22-36, limits assumed, not fully specified; reading uncertain); assay: Luminex bead assay, peptide on streptavidin beads
T1 construct: domain: N-terminal 15-mer; Immobilised on streptavidin-conjugated Luminex beads; The text says 'peptides' in the plural, so more than one overlapping N-terminal 15-mer may be meant; also called N-terminal 15-mer; biotinylated N-terminal 15-mer
T1 peptide (looked up): {Biotin-linker}-QDGNEEMGGITQTPY
Description: A set of experiments was performed to map the epitope recognized by the anti-CD3ε antibodies. In these experiments, the anti-CD3ε antibodies were assessed for binding to a collection of overlapping 15-mer peptides spanning amino acids 1-27 of human CD3ε protein using a Luminex bead assay. Control CD3 proteins, control peptides, or the test peptides were immobilized on Luminex beads and incubated with a panel of anti-CD3 antibodies. Binding of the anti-CD3 antibodies to the peptide/protein immobilized on the Luminex bead was detected by R-Phycoerythrin conjugated secondary antibody.
Recombinant CD3 proteins (human CD3d/e heterodimer and cynomolgus CD3-epsilon (Sinobiological)) and control peptides (#p1, #p2, and #p3) were conjugated to Luminex beads using standard EDC/Sulfo-NHS chemistry. […] The Luminex beads with immobilized peptides or reagents were incubated with 50 ul of a panel of anti-CD3 antibodies (1 ug/ml) for one hour at room temperature, washed two times, incubated with mixture of anti-human and anti-mouse IgG-RPE (Jackson Immunoresearch 109-116-097 and Southern Biotech 1030-09, respectively) for 30 mins at RT, washed three times, and analyzed in the Luminex instrument to assess the level of bound anti-CD3 antibodies.

AGS73.15 (MS497) [2] = molecular target: T2, AGS73.15 (MS497); assay: flow cytometry, blocking of AGS73.15 binding to CD3ε on human T cells, % binding, the axis reads nM
T2 construct: It carries a human IgG Fc (detected with anti-human IgG Fc)

AGS73.15 (MS497) [3] = molecular target: T2, AGS73.15 (MS497); assay: flow cytometry, blocking of AGS73.15 (200 ng/ml) binding to CD3ε on human T cells; AGS73.15 detected with anti-human IgG Fc-PE
cynomolgus CD3-epsilon [4] = molecular target: T3, cynomolgus CD3-epsilon (cynomolgus, UniProt Q95LI5 22-198); assay: flow cytometry, three-colour staining (CD3/CD4/CD8) of cynomolgus PBMCs of three donors
T3 construct: whole, on cells; also called CD3ε on cynomolgus T cells / PBMCs
Description: Cross-reactivity of anti-CD3ε antibodies to cynomolgus CD3-epsilon was assessed by three-color phenotyping (CD3/CD4/CD8) using PBMCs from three different cynomolgus donors.
PBMCs from different cynomolgus donors were stained with anti-CD4, anti-CD8, and a panel of different anti-CD3 antibodies. For each anti-CD3 antibody, the CD3 positive cells were gated and assessed for their CD4/CD8 phenotype. FIG. 8A depicts the total CD3 positive cells in PBMCs from the three different donors. FIGS. 8B-8E show the percentage of CD3 positive cells displaying CD4−/CD8+, CD4+/CD8−, CD4+/CD8+, and CD4−/CD8− phenotypes, respectively.

cynomolgus CD3-epsilon [5] = molecular target: T3, cynomolgus CD3-epsilon; assay: flow cytometry on cynomolgus T cells
Description: (§1) In these experiments, human or cynomolgus T cells were incubated with an anti-CD3ε antibody and binding was assessed by flow cytometry.
(§2) Briefly, donor T cells from either human or cynomolgus donors were resuspended in FACS buffer containing 0.1% sodium azide and aliquoted in 100 μL volumes. For incubation, 100 μL aliquots of donor T cells were mixed with 50 μL of antibodies diluted in FACS buffer containing 0.1% sodium azide. The cells were then washed twice with FACS buffer containing sodium azide. The bound antibody was detected by incubating cells for 60 minutes with a 1:200 dilution of SAV-RPE (Invitrogen Cat No. SA10044, Lot. 1542820A) or 1:100 dilution of goat-anti-Mouse Fcγ-RPE (Jackson Cat. No. 115-116-071, Lot. 108668, diluted in 0.2% goat serum). The cells were washed, fixed, and analyzed with an Accuri Flow Cytometer.
(§3) Treatment with OKT3, SP34-2, and diL2K antibodies were used as positive controls for T cell binding. […] Treatment with OKT3, SP34-2, and diL2K antibodies were used as controls for T cell binding with only SP34-2 binding to cynomolgus T cells, as expected.

human CD3 epsilon (CD3ε) = molecular target: T4, human CD3 epsilon (CD3ε) (human, UniProt P07766 23-207); assay: flow cytometry on human T cells
T4 construct: Present on donor human T cells as part of the TCR-CD3 complex; also called CD3ε on human T cells
Description: as §1, §2, §3

T3 sequence (Q95LI5 22-198): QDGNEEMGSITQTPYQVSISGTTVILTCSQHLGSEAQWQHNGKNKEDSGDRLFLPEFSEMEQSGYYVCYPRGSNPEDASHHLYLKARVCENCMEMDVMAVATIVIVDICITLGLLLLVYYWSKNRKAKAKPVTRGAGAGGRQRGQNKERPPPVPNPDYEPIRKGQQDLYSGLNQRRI

binding result [1]: no binding (tested: 1 ug/ml)
B1: 6d23 (antibody, V domains shown)
VH: QVQLVESGGGVVQPGRSLRLSCEASGFTFRSYGMHWVRQAPGKGLEWVAIIWYDGSNKYYGDSVKGRFTISRDNSKNTLSLQMNSLRAEDTAVYYCASLSVNDYYVLDVWGQGTTVTVSS
VL: DVVMTQSPFSLPVTLGQPASMSCRSSQSLVNSDGKTHLNWFQQRPGQSPRRLIYKVSNRDSGVPDRFSGSGSGTDFTLKISRVEAEDVGVYYCMQGTHWPLTFGGGTKVEIKR
notes: Anti-CD3ε antibody; also called 6d23.1; VCD3-6d23.1

EC50 (AGS73.15 (MS497) [2]): 0.56 nM
IC50 (read off the curve) (AGS73.15 (MS497) [3]): ~0.08 µg/mL
B2: 6d59.id.1b67.1 (antibody, V domains shown)
VH: QVTLKESGPGILKPSQTLSLTCSFSGFSLSTSGMGVGWIRQPSGKGLEWLAHIWWDDDKFYKPSLKNRLTISKDTSRNQVFLKITSVDTADAATYFCVRRSAYEAFTLDYWGQGTSVTVSS
VL: DIMLTQSPASLAVSLGQRATISCKASQSVDYDGNGYLNWYQQKPGQPPKLLIYAASNLESGIPARFSGSGSGTDFTLNIHPVEEEDVATYYCQQSSEDPFTFGSGTKLEIKR
notes: Anti-idiotypic antibody against 6d59

binding result (cynomolgus CD3-epsilon [4]): binds
B3: 1c144.1 (antibody, V domains shown)
VH: ELQLVESGGGLVQPGGSLRLSCAASGFNFRSYEMNWVRQAPGKGLEWVSYISSSSTTIYYAGSVKGRFTISRDNAKHSLYLQMNSLRAEDTAVYYCARDRGALDYWGQGTLVTVSS
VL: DIQMTQSPSSLSASVGDRVTITCQASQDIRKYLNWYQQKPGKAPKLLIYDASNLETGVPSRFSGSGSGTDFSFTISSLQPEDLATYYCQHYANLPPLFTFGPGTKVDIKR
notes: the sheet prints 1c144.1

binding result (cynomolgus CD3-epsilon [5]): no binding
EC50 (read off the curve) (human CD3 epsilon (CD3ε)): 1 to 3 nM
B4: 4b8 (antibody, V domains shown)
VH: EVQLVESGGGLVKPGGSLRLSCAASGFTFSSYSMNWVRQAPGKGLDWVSYISRSSNYTYYADSVMGRFTISRDNAKNSLYLQMNSLRAEDTAVYYCARDRRGYSGYNHFDYWGQGTLVTVSS
VL: DIQMTQSPSSLSASVGDRVTITCRASQSISNYLNWYQQKPGKAPKLLIYAASSLQSGVPSRFSGSRSGTDFTLTISSLQPEDFASYYCQQSFSTLYTFGQETKLEIKR
notes: Anti-CD3ε antibody

EC50 (AGS73.15 (MS497) [2]): 0.443 nM
IC50 (read off the curve) (AGS73.15 (MS497) [3]): ~0.07 µg/mL
B5: 6d59.id.1b18.1 (antibody, V domains shown)
VH: DVLLQESGPGLVKPSQSLSLTCSVTGYSITSGHYWIWIRQFPGNKLEWMGYITYDGSNNYNPSLKKRISITRDTSENQFFLKLNPVTTEDTATYYCARDVADSYGNGYDAMDYWGQGTSVTVSS
VL: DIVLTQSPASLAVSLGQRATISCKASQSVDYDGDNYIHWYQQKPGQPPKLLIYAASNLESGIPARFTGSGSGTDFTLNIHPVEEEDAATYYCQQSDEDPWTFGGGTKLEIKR
notes: as for B2

EC50 (AGS73.15 (MS497) [2]): 0.413 nM
IC50 (read off the curve) (AGS73.15 (MS497) [3]): ~0.07 µg/mL
B6: 6d59.id.1b54.1 (antibody, V domains shown)
VH: DVQLQESGPGLVKPSQSLSLTCSVTGYSITSSYYWNWIRQFPGNKLEWMGSIMYDGNNNYNPSLKNRISITRDTSKNQFFLKLNSVTTEDTATYYCARNMADYFGNTYDALDYWGQGTSVTVSS
VL: DILLTQSPGSLAVSLGQRATISCKASQSADYGGDSYMSWYQQKPGQPPKLLIYAASNLESGTPARFSGSGSGTDFTLNIHPVEEEDAATYYCQQGNEDPWTFGGGTKLEIKR
notes: as for B2

EC50 (AGS73.15 (MS497) [2]): 0.243 nM
IC50 (read off the curve) (AGS73.15 (MS497) [3]): ~0.05 µg/mL
B7: 6d59.id.1b76.1 (antibody, V domains shown)
VH: DVKLVDSGGGLVKPGGSLKLSCAASGFTFSNYGMSWVRQTPEKRLEWVATISSGGYYTYYPDSVKGRFTISRDNAKNTLYLQMGSLKSEDTAMYYCSRDREGFGNYLGAMDYWGQGTSVTVSS
VL: B2 VL with M3V, L37M, V87A, S96N, F100Y, S104G
notes: as for B2

EC50 (AGS73.15 (MS497) [2]): 0.327 nM
IC50 (read off the curve) (AGS73.15 (MS497) [3]): ~0.06 µg/mL
B8: 6d59.id.1b71.1 (antibody, V domains shown)
VL: B2 VL with M3V, L37M, V87A, S96N, F100Y, S104G
V domain: EVQLQQSGSELASPGTSVKLSCKASGYTFTSYWVQWIKQRPGQGLEWIGAIYPGDGDLRSTQKFKGKATLTADKSSDTAYMQLSSLASEDSAVYYCARLDDFDLDYWGQGTTLIVSS
notes: as for B2

EC50 (AGS73.15 (MS497) [2]): 0.335 nM
IC50 (read off the curve) (AGS73.15 (MS497) [3]): ~0.05 µg/mL
B9: 6d59.id.1b73.1 (antibody, V domains shown)
VH: QVQLQQSGPEVVKPGASVKMSCKASGYTFTDCVISWIKQRTGQGLEWIGEIHPGSGNTYNNEKFKGKATLTADKSSNTAYIQLSSLTSEDSAVYFCARVGDWYDDAMDYWGQGTSVTVSS
VL: B2 VL with M3V, L37M, V87A, S96N, F100Y, S104G
notes: as for B2

EC50 (AGS73.15 (MS497) [2]): 0.368 nM
IC50 (read off the curve) (AGS73.15 (MS497) [3]): ~0.06 µg/mL
B10: 6d59.id.1b61.1 (antibody, V domains shown)
VH: B6 VH with S51Y
VL: B6 VL
notes: as for B2

EC50 (read off the curve) (cynomolgus CD3-epsilon [5]): ~0.07 nM
EC50 (read off the curve) (human CD3 epsilon (CD3ε)): ~0.05 nM
B11: 6d58 (antibody, V domains shown)
VH: QVHLVESGGGVVQPGRSLRLSCAASGFKFRSYGMHWVRQAPGKGLEWVAIIWYDGSKRYYADSVKGRFTISRDNSKNTLYLQMSSLRAEDTAVYYCARDLITGTTDYWGQGTLVTVSS
VL: DVVMTQSPLSLPVTLGQPASISCRSSRSLVYSDGNTHLIWFQQRPGQSPRRLIYRVSNRVSGVPDRFSGSGSGTDFTLKISRVEAEDVGVYYCLQGAHWPYTFGQGTKLEIKR
notes: also called 6d58 (same as 6d59)
